This is an account of results in patent US6018021.

Experiment [1] addresses full-length recombinant TAL-H protein (38 kDa), cleaved with thrombin from a GST fusion protein (human).
Experiment [2] shares this target. The source holds these as a separate data set.
Experiment [3] addresses tetanus toxoid (Clostridium tetani (strain Massachusetts / E88)) (UniProt P04958).
Experiment [4] deals with purified human myelin basic protein (18.5 kDa) (human) (UniProt P02686).

For the substance “peripheral blood lymphocytes of MS patient four (cells without a defined receptor)”, the 3H-TdR incorporation, Stimulation Index (S.I.) in experiment [1] came out at 2.7 S.I.

Consider “peripheral blood lymphocytes of MS patient eight (cells without a defined receptor)”, for which the 3H-TdR incorporation, Stimulation Index (S.I.) in experiment [1] came to 4.5 S.I.

Consider “peripheral blood lymphocytes of control donor PEG (cells without a defined receptor)”, for which, in experiment [1], the 3H-TdR incorporation, Stimulation Index (S.I.) is 0.7 S.I.

Take “peripheral blood lymphocytes of MS patient twelve (cells without a defined receptor)”: the 3H-TdR incorporation, Stimulation Index (S.I.) in experiment [1] stood at 3.1 S.I.

Turning to “peripheral blood lymphocytes of MS patient two (cells without a defined receptor)”, in experiment [1], the 3H-TdR incorporation, Stimulation Index (S.I.) is 4.7 S.I.

For “peripheral blood lymphocytes of control donor three (cells without a defined receptor)”, the 3H-TdR incorporation, Stimulation Index (S.I.) in experiment [1] amounted to 1 S.I.

On to “peripheral blood lymphocytes of MS patient six (cells without a defined receptor)”, for which the 3H-TdR incorporation, Stimulation Index (S.I.) in experiment [1] turned out to be 2.9 S.I.

For the substance “peripheral blood lymphocytes of MS patient seven (cells without a defined receptor)”, in experiment [1], the 3H-TdR incorporation, Stimulation Index (S.I.) is 1.4 S.I.

Turning to “peripheral blood lymphocytes of control donor ten (cells without a defined receptor)”, the 3H-TdR incorporation, Stimulation Index (S.I.) in experiment [1] turned out to be 2.3 S.I.

Turning to “peripheral blood lymphocytes of MS patient eleven (cells without a defined receptor)”, in experiment [1], the 3H-TdR incorporation, Stimulation Index (S.I.) stood at 10.3 S.I.

For “peripheral blood lymphocytes of MS patient fourteen (cells without a defined receptor)”, in experiment [1], the 3H-TdR incorporation, Stimulation Index (S.I.) was 7.1 S.I.

Turning to “peripheral blood lymphocytes of MS patient seventeen (cells without a defined receptor)”, the Stimulation Index in experiment [2] came to 6.47 S.I; in experiment [3], 3.81 S.I; in experiment [4], 3.01 S.I.

As to “peripheral blood lymphocytes of MS patient five (cells without a defined receptor)”, the 3H-TdR incorporation, Stimulation Index (S.I.) in experiment [1] was 3.3 S.I.

Take “peripheral blood lymphocytes of MS patient one (cells without a defined receptor)”: the Stimulation Index came out at 1.81 S.I in experiment [2], 0.8 S.I in experiment [3] and 0.89 S.I in experiment [4].

As for “peripheral blood lymphocytes of MS patient nine (cells without a defined receptor)”, the 3H-TdR incorporation, Stimulation Index (S.I.) in experiment [1] worked out at 3.1 S.I.

As for “peripheral blood lymphocytes of control donor sixteen (cells without a defined receptor)”, the 3H-TdR incorporation, Stimulation Index (S.I.) in experiment [1] is 1.4 S.I.

On to “peripheral blood lymphocytes of MS patient fifteen (cells without a defined receptor)”, for which the Stimulation Index is 4.61 S.I in experiment [2], 0.96 S.I in experiment [3] and 1.53 S.I in experiment [4].

As for “peripheral blood lymphocytes of control donor PRO (cells without a defined receptor)”, the 3H-TdR incorporation, Stimulation Index (S.I.) in experiment [1] is 1 S.I.

For “peripheral blood lymphocytes of MS patient thirteen (cells without a defined receptor)”, the Stimulation Index was found to be 3.95 S.I in experiment [2], 0.79 S.I in experiment [3] and 2.25 S.I in experiment [4].
